B1: phage clone KEADCAWHMGELVWCSEMEG (peptide)
peptide: KEADCAWHMGELVWCSEMEG
notes: M13/gIII phage display; Secondary Optimization
B2: phage clone RVADCAWHMGELVWCSELEV (peptide)
peptide: RVADCAWHMGELVWCSELEV
notes: as for B1
B3: phage clone EQADCAWHLGELVWCTPMVF (peptide)
peptide: EQADCAWHLGELVWCTPMVF
notes: as for B1
B4: phage clone EEASCAYHLGELVWCDAFDV (peptide)
peptide: EEASCAYHLGELVWCDAFDV
notes: as for B1
B5: phage clone KEARCWYWHGELVWCSDPEE (peptide)
peptide: KEARCWYWHGELVWCSDPEE
notes: M13/gIII phage display; Focused Libraries
B6: phage clone KVADCAWHMGELVWCTEVEG (peptide)
peptide: KVADCAWHMGELVWCTEVEG
notes: as for B1
B7: phage clone KEASCAWHLGELVWCSEVEE (peptide)
peptide: KEASCAWHLGELVWCSEVEE
notes: as for B1
B8: phage clone DLADCSYWLGELVWCSRVEG (peptide)
peptide: DLADCSYWLGELVWCSRVEG
notes: as for B5
B9: phage clone GVRNCAYHLGELVWCTPMEF (peptide)
peptide: GVRNCAYHLGELVWCTPMEF
notes: as for B1
B10: phage clone EVADCSWHLGELVWCTEGEF (peptide)
peptide: EVADCSWHLGELVWCTEGEF
notes: as for B1
B11: phage clone GEEDCSYHLGELVMCTELDD (peptide)
peptide: GEEDCSYHLGELVMCTELDD
notes: as for B1
B12: phage clone WVDCAYHLGELVWCSTFEE (peptide)
peptide: WVDCAYHLGELVWCSTFEE
notes: M13/gIII phage display; Secondary Optimization; printed with 19 residues
B13: phage clone EEPDCSWHLGELVMCTPMEV (peptide)
peptide: EEPDCSWHLGELVMCTPMEV
notes: as for B1
B14: phage clone EEPDCSWHLGELVWCTPIEV (peptide)
peptide: EEPDCSWHLGELVWCTPIEV
notes: as for B1
B15: phage clone KEASCSYWLGELVWCDGLDE (peptide)
peptide: KEASCSYWLGELVWCDGLDE
notes: as for B5
B16: phage clone KEASCSYWLGELVWCDTFDE (peptide)
peptide: KEASCSYWLGELVWCDTFDE
notes: as for B5
B17: phage clone KEASCSYWLGELVWCVGLDE (peptide)
peptide: KEASCSYWLGELVWCVGLDE
notes: as for B5
B18: phage clone WEEDCAWHLGELVWCAEFDE (peptide)
peptide: WEEDCAWHLGELVWCAEFDE
notes: as for B1
B19: phage clone WVEDCAWHMGELVWCTKVDE (peptide)
peptide: WVEDCAWHMGELVWCTKVDE
notes: as for B1
B20: phage clone GEEDCAWHLGELVWCTDVED (peptide)
peptide: GEEDCAWHLGELVWCTDVED
notes: as for B1
B21: phage clone EVEDCAYHLGELVWCSDLEG (peptide)
peptide: EVEDCAYHLGELVWCSDLEG
notes: as for B1
B22: phage clone READCAWHLGELVWCSERDL (peptide)
peptide: READCAWHLGELVWCSERDL
notes: as for B1
B23: phage clone AEADCAWHLGELVWCTKVEE (peptide)
peptide: AEADCAWHLGELVWCTKVEE
notes: M13/gIII phage display; ALA Scan on Phage
B24: phage clone WEAACAWHLGELVWCTKVEE (peptide)
peptide: WEAACAWHLGELVWCTKVEE
notes: as for B23
B25: phage clone WAADCAWHLGELVWCTKVEE (peptide)
peptide: WAADCAWHLGELVWCTKVEE
notes: as for B23
B26: phage clone WEADCAWHLAELVWCTKVEE (peptide)
peptide: WEADCAWHLAELVWCTKVEE
notes: as for B23
B27: phage clone WEADCAAHLGELVWCTKVEE (peptide)
peptide: WEADCAAHLGELVWCTKVEE
notes: as for B23
B28: phage clone WEADCAWHLGEAVWCTKVEE (peptide)
peptide: WEADCAWHLGEAVWCTKVEE
notes: as for B23
B29: phage clone WEADCAWHLGELVACTKVEE (peptide)
peptide: WEADCAWHLGELVACTKVEE
notes: as for B23
B30: phage clone WEADCAWALGELVWCTKVEE (peptide)
peptide: WEADCAWALGELVWCTKVEE
notes: as for B23
B31: phage clone WEADCAWHLGELVWCAKVEE (peptide)
peptide: WEADCAWHLGELVWCAKVEE
notes: as for B23
B32: phage clone WEAACSWHLGELVWCTKVEE (peptide)
peptide: WEAACSWHLGELVWCTKVEE
notes: as for B23
B33: phage clone WEADCAWHAGELVWCTKVEE (peptide)
peptide: WEADCAWHAGELVWCTKVEE
notes: as for B23
B34: phage clone WEADCAWHLGELAWCTKVEE (peptide)
peptide: WEADCAWHLGELAWCTKVEE
notes: as for B23
B35: phage clone WEADCAWHLGALVWCTKVEE (peptide)
peptide: WEADCAWHLGALVWCTKVEE
notes: as for B23
B36: phage clone WEADCAWHLGELVWCTAVEE (peptide)
peptide: WEADCAWHLGELVWCTAVEE
notes: as for B23
B37: phage clone WEADCAWHLGELVWCTKAEE (peptide)
peptide: WEADCAWHLGELVWCTKAEE
notes: as for B23
B38: phage clone GEASCAYHLGELVWCDEGEG (peptide)
peptide: GEASCAYHLGELVWCDEGEG
notes: as for B1
B39: phage clone RVEDCAYHLGELVWCTEGDE (peptide)
peptide: RVEDCAYHLGELVWCTEGDE
notes: as for B1
B40: phage clone GEPDCAWHLGELVWCTPMVF (peptide)
peptide: GEPDCAWHLGELVWCTPMVF
notes: as for B1
B41: phage clone WVEDCSWHMGELVWCDGGEF (peptide)
peptide: WVEDCSWHMGELVWCDGGEF
notes: as for B5
B42: phage clone GEEDCAWHLGELVWCSGGDF (peptide)
peptide: GEEDCAWHLGELVWCSGGDF
notes: as for B1
B43: phage clone GEQDCSYHMGELVWCTTVDG (peptide)
peptide: GEQDCSYHMGELVWCTTVDG
notes: as for B1
B44: phage clone GEADCSYHLGELVWCNDFEE (peptide)
peptide: GEADCSYHLGELVWCNDFEE
notes: as for B1
B45: phage clone KEASCSWHLGELVWCVAGVE (peptide)
peptide: KEASCSWHLGELVWCVAGVE
notes: as for B5
B46: phage clone KEASCSYWLGELVWCSPGVE (peptide)
peptide: KEASCSYWLGELVWCSPGVE
notes: as for B5
B47: phage clone KEASCSYHLGELVWCVAGVE (peptide)
peptide: KEASCSYHLGELVWCVAGVE
notes: as for B5
B48: phage clone KEASCSYWLGELVWCTEGVE (peptide)
peptide: KEASCSYWLGELVWCTEGVE
notes: as for B5

Columns and labels:
IgG-Fc [1] = target: T1, IgG-Fc (UniProt P01857-1 108-330 = IgG part, limits assumed); assay: phage ELISA, M13/gIII display
T1 construct: domain: IgG-Fc; also called biotinylated-IgG-Fc; biotin-IgG-Fc

IgG-Fc [2] = target: T1, IgG-Fc; assay: phage ELISA, M13/gIII display, ALA scan

Row | Binder | EC50 (IgG-Fc [1]) [nM] | EC50 (IgG-Fc [2]) [nM]
1 | B1 | 66 | –
2 | B2 | 44 | –
3 | B3 | 8 | –
4 | B4 | 77 | –
5 | B5 | 809 | –
6 | B6 | 23 | –
7 | B7 | 130 | –
8 | DLADCSWHLGELVWCSRVEG (M13/gIII phage display; Designed Clones) [phage clone DLADCSWHLGELVWCSRVEG] | 9 | –
9 | B8 | 776 | –
10 | B9 | 10 | –
11 | B10 | 54 | –
12 | B11 | 69 | –
13 | B12 | 9 | –
14 | B13 | 14 | –
15 | B14 | 15 | –
16 | B15 | 326 | –
17 | B16 | 301 | –
18 | B17 | 278 | –
19 | B18 | 44 | –
20 | WVEDCSWHLGELVWCVGLDF (M13/gIII phage display; Designed Clones) [phage clone WVEDCSWHLGELVWCVGLDF] | 31 | –
21 | B19 | 70 | –
22 | B20 | 52 | –
23 | DLADCSWHLGELVWCVGLDE (M13/gIII phage display; Designed Clones) [phage clone DLADCSWHLGELVWCVGLDE] | 28 | –
24 | B21 | 82 | –
25 | B22 | 47 | –
26 | B23 | – | 20

Row | Binder | EC50 (IgG-Fc [1]) [nM] | EC50 (IgG-Fc [2]) [nM]
27 | B24 | – | 55
28 | B25 | – | 34
29 | B26 | – | 12
30 | B27 | – | 798
31 | B28 | – | 1890
32 | B29 | – | 3380
33 | B30 | – | 139
34 | B31 | – | 101
35 | B32 | – | 10
36 | B33 | – | 56
37 | B34 | – | 4670
38 | B35 | – | 11
39 | B36 | – | 10
40 | B37 | – | 8
41 | B38 | 386 | –
42 | B39 | 63 | –
43 | B40 | 7 | –
44 | B41 | 139 | –
45 | B42 | 100 | –
46 | B43 | 210 | –
47 | B44 | 156 | –
48 | B45 | 225 | –
49 | B46 | 734 | –
50 | B47 | 416 | –
51 | B48 | 818 | –

Source: patent US20040253247A1 (Genentech, published 2004)
